Patent US20230287087A1

Molecular target: Spike protein of patient-derived SARS-CoV-2 (D614G) (SARS-CoV-2) (UniProt P0DTC2)
Test: cell-based or functional assay

Substance | neutralization by the trimer against the monomer [fold] | partial neutralization [nM]
VHH-72 ColXVIII trimer | 10000 | 
VHH-72 monomer |  | 170
